Data reported in publication PMC10093686, “Structural insights into acetylated histone ligand recognition by the BDP1 bromodomain of Plasmodium falciparum” (International journal of biological macromolecules, 2022).
No end group written: not given here.

Biological target: PfBDP1-BRD (residues 303–488 or 333–456), bromodomain of P. falciparum Bromodomain Protein 1, as used in ITC (P. falciparum) (UniProt Q8IJ72)
Experiment: ITC; histone peptide (2.5–5.0 mM) in the syringe, PfBDP1-BRD (303–488 or 333–456; 100–200 μM) in the sample cell; 5°C; 20 mM sodium phosphate pH 7.5, 150 mM NaCl, 1 mM TCEP; 1:1 binding model, single set of identical sites

In the case of SGK(Ac)GPAQK(Ac)SQAAK(Ac)K(Ac)TAGK(Ac)TLGPR [H2B.ZK3acK8acK13acK14acK18ac histone peptide, penta-acetylated histone H2B.Z], the Kd is reported as 1300 µM and the stoichiometry N is reported as 1.
